# Assay results as given in PMC6668441, “Comparative Study of Subcutaneous and Orthotopic Mouse Models of Prostate Cancer: Vascular Perfusion, Vasculature Density, Hypoxic Burden and BB2r-Targeting Efficacy” (Scientific Reports, 2019).
# Assays:
# [1] = Biodistribution, BB2r-targeted uptake, orthotopic PC-3 xenograft model; details: male, NOD SCID, mouse, iv, total radioactivity, orthotopic model, 10 µCi i.v., 1 h 5 min p.i., mean ± SD; for dose excreted at 65 min: urine and faeces, excretion (urine and fecal material)
# Experimental: (§1) For the subcutaneous model, 5-week old female SCID mice were inoculated in the flanks with 5 × 10^6 PC-3 cells (American Type Culture Collection (ATCC), VA) in Matrigel®. The tumor size was monitored by caliper. For the generation of the orthotopic model, the PC-3-Luc cells were selected by 0.5 µg/mL puromycin twice before inoculation. The male 6-weeks SCID mice were anesthetized, the muscles of the abdomen area were cut after retracting the skin, and the prostate gland exposed. 50 μL of PC-3-Luc cell suspension at 0.5 × 10^6/mL in Matrigel® was injected into a dorsal prostatic lobe. The wound was closed in two layers and the skin was clipped. Animals were given analgesic drugs for 3 days and the tumors were monitored by an IVIS optical imaging system.
# (§2) The mice were injected, monitored and dissected in the lab with the temperature of 23 °C and 17% relative humidity. All animals were awake until sacrifice. The body weight, tumor volume and tumor luminescence of the mice were recorded every three days. At four-to-seven weeks post-xenograft implantation, the mice were divided into three groups by tumor volume: <300, 300–700 and >700 mm^3 in both animal models. […] Each mouse (average weight: 20 g for female mice and 25 g for male mice) was treated with pimonidazole solution (80 mg/kg in PBS) via intraperitoneal injection. […] After an additional 1 h, the mice were injected intravenously with a PBS solution containing 10 µCi (370 kBq) of [^99mTc]NaTcO4 and 15 mg/kg Hoechst 33342. The animals were sacrificed 5 minutes later, and their tissues collected. The excised tissues were weighed, the radioactivity for each tissue was measured by γ-counter and the percentage injected dose per gram (%ID/g) was calculated for each tissue. […]
# (§3) Establishment of Stably Transfected PC-3-Luc Cells
# (§4) To generate the PC-3-Luc cells, we utilized pre-made lentivirus particles encoding luciferase and GFP (EF1a-Luciferase (firefly)-2A-GFP (Puro), AMSBIO) for transfection. Briefly, normal PC-3 cells were seeded in a 24-well plate using 0.5 mL of medium containing 0.5 × 10^5 cells/mL and incubated overnight. The medium was removed and replaced with 0.5 mL of fresh medium pre-mixed with 2.5 ȝL TransduxTM. To each well was added 2 ȝL of the lentivirus particle solution and swirled to mix. The plate was returned to the incubator and cultured for 3 days. Once the cells grew to confluence, they were harvested and transferred to larger plates (from 6-well plates to 60 mm dishes). 1.5 mL of suspended cells in PBS at a concentration of 5 × 10^6/mL was sorted by the FACS method to give the GFP positive (PC-3-Luc) cells that were returned to culture for in vitro and in vivo studies.
# (§5) The normal PC-3 cells and PC-3-Luc were cultured in our laboratory, as per ATCC protocols, in Ham’s F-12K medium containing 10% FBS, 2.5 mM L-glutamine, 15 mM HEPES and 0.5 mM sodium pyruvate. Cells were incubated at 37 °C […]
# (§6) All animal experiments were performed in accordance with the NIH animal use guideline and protocol approved by the […]
# [2] = system: orthotopic PC-3 xenografts; test: as above
# Experimental: as §1, §2, §3, §4, §5, §6
structure (smiles),measurement,setting,value
"CSCC[C@H](NC(=O)[C@H](CC(C)C)NC(=O)[C@H](Cc1c[nH]cn1)NC(=O)CNC(=O)[C@@H](NC(=O)[C@H](C)NC(=O)[C@H](Cc1c[nH]c2ccccc12)NC(=O)[C@H](CCC(N)=O)NC(=O)CCOCCOCCOCCOCCNC(=O)[C@@H](CO)NC(=O)[C@@H](CO)NC(=O)[C@@H](CO)NC(=O)[C@@H](CO)NC(=O)[C@@H](CO)NC(=O)CN1CCN(CC(=O)O)CCN(CC(=O)O)CCN(CC(=O)O)CC1)C(C)C)C(N)=O [[^177Lu]Lu-DOTA-SP714, metal not drawn]",tissue uptake at 65 min,"[1]; blood, 10 uCi, blood uptake, tumor volume 300-700 mm^3",0.33 ± 0.14 %ID/g
same,tissue uptake at 65 min,"[1]; blood, 10 uCi, blood uptake, tumor volume <300 mm^3",0.27 ± 0.19 %ID/g
same,tissue uptake at 65 min,"[1]; blood, 10 uCi, blood uptake, tumor volume >700 mm^3",0.57 ± 0.12 %ID/g
same,tissue uptake at 65 min,"[1]; bone, 10 uCi (370 kBq), bone uptake, tumor volume 300-700 mm^3",0.46 ± 0.22 %ID/g
same,tissue uptake at 65 min,"[1]; bone, 10 uCi (370 kBq), bone uptake, tumor volume <300 mm^3",0.29 ± 0.22 %ID/g
same,tissue uptake at 65 min,"[1]; bone, 10 uCi (370 kBq), bone uptake, tumor volume >700 mm^3",0.53 ± 0.24 %ID/g
same,tissue uptake at 65 min,"[1]; brain, 10 uCi (370 kBq), brain uptake, tumor volume 300-700 mm^3",0.06 ± 0.03 %ID/g
same,tissue uptake at 65 min,"[1]; brain, 10 uCi (370 kBq), brain uptake, tumor volume <300 mm^3",0.03 ± 0.01 %ID/g
same,tissue uptake at 65 min,"[1]; brain, 10 uCi (370 kBq), brain uptake, tumor volume >700 mm^3",0.06 ± 0.02 %ID/g
same,tissue uptake at 65 min,"[1]; heart, 10 uCi (370 kBq), heart uptake, tumor volume 300-700 mm^3",0.39 ± 0.49 %ID/g
same,tissue uptake at 65 min,"[1]; heart, 10 uCi (370 kBq), heart uptake, tumor volume <300 mm^3",0.13 ± 0.09 %ID/g
same,tissue uptake at 65 min,"[1]; heart, 10 uCi (370 kBq), heart uptake, tumor volume >700 mm^3",0.3 ± 0.17 %ID/g
same,tissue uptake at 65 min,"[1]; kidney, 10 uCi (370 kBq), kidney uptake, tumor volume 300-700 mm^3",4.8 ± 4.92 %ID/g
same,tissue uptake at 65 min,"[1]; kidney, 10 uCi (370 kBq), kidney uptake, tumor volume <300 mm^3",3.4 ± 0.92 %ID/g
same,tissue uptake at 65 min,"[1]; kidney, 10 uCi (370 kBq), kidney uptake, tumor volume >700 mm^3",5.98 ± 3.08 %ID/g
same,tissue uptake at 65 min,"[1]; large intestine, 10 uCi (370 kBq), large intestine uptake, tumor volume 300-700 mm^3",4.52 ± 1.31 %ID/g
same,tissue uptake at 65 min,"[1]; large intestine, 10 uCi (370 kBq), large intestine uptake, tumor volume <300 mm^3",2.06 ± 1.02 %ID/g
same,tissue uptake at 65 min,"[1]; large intestine, 10 uCi (370 kBq), large intestine uptake, tumor volume >700 mm^3",4.07 ± 1.91 %ID/g
same,tissue uptake at 65 min,"[1]; liver, 10 uCi (370 kBq), liver uptake, tumor volume 300-700 mm^3",0.4 ± 0.18 %ID/g
same,tissue uptake at 65 min,"[1]; liver, 10 uCi (370 kBq), liver uptake, tumor volume <300 mm^3",0.26 ± 0.07 %ID/g
same,tissue uptake at 65 min,"[1]; liver, 10 uCi (370 kBq), liver uptake, tumor volume >700 mm^3",0.52 ± 0.19 %ID/g
same,tissue uptake at 65 min,"[1]; lung, 10 uCi (370 kBq), lung uptake, tumor volume 300-700 mm^3",0.92 ± 0.41 %ID/g
same,tissue uptake at 65 min,"[1]; lung, 10 uCi (370 kBq), lung uptake, tumor volume <300 mm^3",0.82 ± 0.5 %ID/g
same,tissue uptake at 65 min,"[1]; lung, 10 uCi (370 kBq), lung uptake, tumor volume >700 mm^3",1.28 ± 0.47 %ID/g
same,tissue uptake at 65 min,"[1]; muscle, 10 uCi (370 kBq), muscle uptake, tumor volume 300-700 mm^3",0.22 ± 0.1 %ID/g
same,tissue uptake at 65 min,"[1]; muscle, 10 uCi (370 kBq), muscle uptake, tumor volume <300 mm^3",0.23 ± 0.12 %ID/g
same,tissue uptake at 65 min,"[1]; muscle, 10 uCi (370 kBq), muscle uptake, tumor volume >700 mm^3",0.48 ± 0.34 %ID/g
same,tissue uptake at 65 min,"[1]; pancreas, 10 uCi (370 kBq), pancreas uptake, tumor volume 300-700 mm^3",40.1 ± 11.5 %ID/g
same,tissue uptake at 65 min,"[1]; pancreas, 10 uCi (370 kBq), pancreas uptake, tumor volume <300 mm^3",30 ± 12.5 %ID/g
same,tissue uptake at 65 min,"[1]; pancreas, 10 uCi (370 kBq), pancreas uptake, tumor volume >700 mm^3",37.2 ± 7.29 %ID/g
same,tissue uptake at 65 min,"[1]; small intestine, 10 uCi (370 kBq), small intestine uptake, tumor volume 300-700 mm^3",3.74 ± 1.15 %ID/g
same,tissue uptake at 65 min,"[1]; small intestine, 10 uCi (370 kBq), small intestine uptake, tumor volume <300 mm^3",2.97 ± 0.66 %ID/g
same,tissue uptake at 65 min,"[1]; small intestine, 10 uCi (370 kBq), small intestine uptake, tumor volume >700 mm^3",3.8 ± 1.46 %ID/g
same,tissue uptake at 65 min,"[1]; spleen, 10 uCi (370 kBq), spleen uptake, tumor volume 300-700 mm^3",2.02 ± 3.14 %ID/g
same,tissue uptake at 65 min,"[1]; spleen, 10 uCi (370 kBq), spleen uptake, tumor volume <300 mm^3",1.77 ± 1.19 %ID/g
same,tissue uptake at 65 min,"[1]; spleen, 10 uCi (370 kBq), spleen uptake, tumor volume >700 mm^3",2.91 ± 4.89 %ID/g
same,tissue uptake at 65 min,"[1]; stomach, 10 uCi (370 kBq), stomach uptake, tumor volume 300-700 mm^3",1.59 ± 0.9 %ID/g
same,tissue uptake at 65 min,"[1]; stomach, 10 uCi (370 kBq), stomach uptake, tumor volume <300 mm^3",1.07 ± 0.53 %ID/g
same,tissue uptake at 65 min,"[1]; stomach, 10 uCi (370 kBq), stomach uptake, tumor volume >700 mm^3",1.46 ± 0.62 %ID/g
same,tissue uptake at 65 min,"[1]; tumor, 10 uCi, tumor uptake, tumor volume 300-700 mm^3",8.55 ± 2.65 %ID/g
same,tissue uptake at 65 min,"[1]; tumor, 10 uCi, tumor uptake, tumor volume <300 mm^3",8.07 ± 3.23 %ID/g
same,tissue uptake at 65 min,"[1]; tumor, 10 uCi, tumor uptake, tumor volume >700 mm^3",11.1 ± 2.88 %ID/g
same,dose excreted at 65 min,"[1]; 10 uCi, tumor volume 300-700 mm^3",67.2 ± 8.53%
same,dose excreted at 65 min,"[1]; 10 uCi, tumor volume <300 mm^3",60.8 ± 29.3%
same,dose excreted at 65 min,"[1]; 10 uCi, tumor volume >700 mm^3",60.2 ± 10.8%
same,blood retention values between the two models,[2]; orthotopic versus subcutaneous,not statistically different
same,"average tumor uptake, orthotopic versus subcutaneous model","[2]; tumor volume 300–700 mm^3, p = 0.011",1.6 fold
same,"average tumor uptake, orthotopic versus subcutaneous model","[2]; tumor volume <300 mm^3, p = 0.0055",1.9 fold
same,"average tumor uptake, orthotopic versus subcutaneous model","[2]; tumor volume >700 mm^3, p = 0.34",1.2 fold
